Laboratory results: paper PMC11316641 (Cell, 2024)

Columns and labels:
[1] = target: WDR11-FAM91A1 complex (human) (UniProt Q658Y4); assay: BLI
[2] = target: the molecule itself; assay: SEC-MALS

Chain of WDR11-FAM91A1 complex (human) (Q658Y4 whole entry, one chain of several): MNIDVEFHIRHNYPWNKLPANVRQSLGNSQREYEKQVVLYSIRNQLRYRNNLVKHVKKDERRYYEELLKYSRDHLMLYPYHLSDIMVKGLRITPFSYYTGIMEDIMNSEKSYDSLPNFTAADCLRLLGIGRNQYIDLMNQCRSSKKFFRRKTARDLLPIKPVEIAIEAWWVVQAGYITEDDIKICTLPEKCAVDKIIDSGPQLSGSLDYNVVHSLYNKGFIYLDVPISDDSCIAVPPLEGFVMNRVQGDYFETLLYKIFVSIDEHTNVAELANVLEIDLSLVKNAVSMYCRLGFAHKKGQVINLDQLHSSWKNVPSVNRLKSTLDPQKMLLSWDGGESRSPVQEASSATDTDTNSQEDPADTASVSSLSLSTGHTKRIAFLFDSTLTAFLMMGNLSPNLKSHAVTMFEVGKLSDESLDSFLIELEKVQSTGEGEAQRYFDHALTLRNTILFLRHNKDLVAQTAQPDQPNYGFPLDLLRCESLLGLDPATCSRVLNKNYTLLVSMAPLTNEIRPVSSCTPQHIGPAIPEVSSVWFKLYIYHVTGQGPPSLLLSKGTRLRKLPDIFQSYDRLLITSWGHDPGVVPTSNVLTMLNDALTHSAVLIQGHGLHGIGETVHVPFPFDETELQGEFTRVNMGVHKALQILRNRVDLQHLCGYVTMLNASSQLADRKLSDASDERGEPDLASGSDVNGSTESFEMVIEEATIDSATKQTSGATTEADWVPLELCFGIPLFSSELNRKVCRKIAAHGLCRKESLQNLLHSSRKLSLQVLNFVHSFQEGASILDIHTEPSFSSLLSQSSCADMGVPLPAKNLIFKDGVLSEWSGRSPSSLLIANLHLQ

Molecule	Kd [1] [µM]	stoichiometry N [2]
CI-MPR AC1-WT peptide	20.8	
WDR11 (natural protein, human) MLPYTVNFKVSARTLTGALNAHNKAAVDWGWQGLIAYGCHSLVVVIDSITAQTLQVLEKHKADVVKVKWARENYHHNIGSPYCLRLASADVNGKIIVWDVAAGVAQCEIQEHAKPIQDVQWLWNQDASRDLLLAIHPPNYIVLWNADTGTKLWKKSYADNILSFSFDPFDPSHLTLLTSEGIVFISDFSPSKPPSGPGKKVYISSPHSSPAHNKLATATGAKKALNKVKILITQEKPSAEFITLNDCLQLAYLPSKRNHMLLLYPREILILDLEVNQTVGVIAIERTGVPFLQVIPCFQRDGLFCLHENGCITLRVRRSYNNIFTTSNEEPDPDPVQELTYDLRSQCDAIRVTKTVRPFSMVCCPVNENAAALVVSDGRVMIWELKSAVCNRNSRNSSSGVSPLYSPVSFCGIPVGVLQNKLPDLSLDNMIGQSAIAGEEHPRGSILREVHLKFLLTGLLSGLPAPQFAIRMCPPLTTKNIKMYQPLLAVGTSNGSVLVYHLTSGLLHKELSIHSCEVKGIEWTSLTSFLSFATSTPNNMGLVRNELQLVDLPTGRSIAFRGERGNDESAIEMIKVSHLKQYLAVVFRDKPLELWDVRTCTLLREMSKNFPTITALEWSPSHNLKSLRKKQLATREAMARQTVVSDTELSIVESSVISLLQEAESKSELSQNISAREHFVFTDIDGQVYHLTVEGNSVKDSARIPPDGSMGSITCIAWKGDTLVLGDMDGNLNFWDLKGRVSRGIPTHRSWVRKIRFAPGKGNQKLIAMYNDGAEVWDTKEVQMVSSLRSGRNVTFRILDVDWCTSDKVILASDDGCIRVLEMSMKSACFRMDEQELTEPVWCPYLLVPRASLALKAFLLHQPWNGQYSLDISHVDYPENEEIKNLLQEQLNSLSNDIKKLLLDPEFTLLQRCLLVSRLYGDESELHFWTVAAHYLHSLSQEKSASTTAPKEAAPRDKLSNPLDICYDVLCENAYFQKFQLERVNLQEVKRSTYDHTRKCTDQLLLLGQTDRAVQLLLETSADNQHYYCDSLKACLVTTVTSSGPSQSTIKLVATNMIANGKLAEGVQLLCLIDKAADACRYLQTYGEWNRAAWLAKVRLNPEECADVLRRWVDHLCSPQVNQKSKALLVLLSLGCFFSVAETLHSMRYFDRAALFVEACLKYGAFEVTEDTEKLITAIYADYARSLKNLGFKQGAVLFASKAGAAGKDLLNELESPKEEPIEE		2
